The values that follow come from publication doi:10.1101/2020.09.12.286559 (bioRxiv, 2020).

For assay [1], the target named is T1, Recombinant N-terminal His6-tagged TRF1 (human), P54274.
T1 chain: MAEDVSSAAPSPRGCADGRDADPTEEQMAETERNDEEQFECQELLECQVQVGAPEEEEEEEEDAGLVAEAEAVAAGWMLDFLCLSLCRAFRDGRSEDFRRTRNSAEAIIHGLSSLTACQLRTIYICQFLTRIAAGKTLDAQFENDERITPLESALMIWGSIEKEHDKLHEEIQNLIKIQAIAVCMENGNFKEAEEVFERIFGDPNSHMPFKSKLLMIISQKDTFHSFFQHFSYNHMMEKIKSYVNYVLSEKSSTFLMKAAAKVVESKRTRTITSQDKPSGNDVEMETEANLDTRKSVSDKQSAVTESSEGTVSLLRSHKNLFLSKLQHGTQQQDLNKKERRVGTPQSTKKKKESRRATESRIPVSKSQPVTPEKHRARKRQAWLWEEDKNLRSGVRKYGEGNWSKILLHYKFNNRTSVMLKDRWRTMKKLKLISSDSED
The experiment in a line: AFM volume analysis. The following applies: remark: other sources report otherwise.

Assay [2] addresses T2, N-terminal HA-tagged TIN2L (HA-TIN2L, 1-451 aa) (human, UniProt Q9BSI4-1 1-451).
T2 sequence: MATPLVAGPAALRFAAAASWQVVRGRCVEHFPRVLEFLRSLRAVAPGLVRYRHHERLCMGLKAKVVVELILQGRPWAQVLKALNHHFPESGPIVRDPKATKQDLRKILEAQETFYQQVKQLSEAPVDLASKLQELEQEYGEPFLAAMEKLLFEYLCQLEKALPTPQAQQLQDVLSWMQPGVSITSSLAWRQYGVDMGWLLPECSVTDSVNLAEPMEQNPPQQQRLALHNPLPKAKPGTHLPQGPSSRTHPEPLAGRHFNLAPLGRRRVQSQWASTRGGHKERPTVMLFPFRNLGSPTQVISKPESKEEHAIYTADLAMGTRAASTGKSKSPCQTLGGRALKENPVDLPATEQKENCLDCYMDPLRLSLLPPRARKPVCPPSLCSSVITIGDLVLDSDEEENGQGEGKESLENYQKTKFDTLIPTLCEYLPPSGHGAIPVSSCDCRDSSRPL
Briefly: native gel or EMSA.

B1: Recombinant N-terminal His6-tagged TRF1 (natural protein)
chain: T1 chain
As for B1, the stoichiometry N in assay [1] came out at 2. For the same molecule, the binding result in assay [2] is reported as “binds”.

As usually defined, the stoichiometry N is the number of molecules, sites or subunits per partner or assembly.
